From patent publication US20260265379A1 (IMCHECK THERAPEUTICS, published 2026)

B1: bsAb054 (bispecific antibody)
heavy (part 1 of 2): EVQLVESGGGLVQPGGSLRLSCAASGFTFSRYWMSWVRQAPGKGLEWVANIKQDGSEKYYVDSVKGRFTISRDNAKNSLYLQMNSLRAEDTAVYYCAREGGWFGELAFDYWGQGTLVTVSS
heavy (part 2 of 2): GGGGSGGGGSGGGGSGGGGSQVQLVQSGAEVKKPGASVKLSCKASGYIFTRYYMYWVKQRPGQGLEWIGEINPNNGGTKFNEKFKNRATLTVDKSISTAYMELSRLRSDDTAVYYCSREDDYDGTPFAMDYWGQGTLVTVSSGGGGSGGGGSGGGGSGGGGSDIQMTQSPSSLSASVGDRVTITCHASQNINVWLSWYQQKPGKAPKLLIYKASNLHTGVPSRFTGSGSGTDFTFTISSLQPEDIATYYCQQGQTYPYTFGQGTKLEIK
heavy: B1 heavy (part 1 of 2)
light: EIVLTQSPGTLSLSPGERATLSCRASQRVSSSYLAWYQQKPGQAPRLLIYDASSRATGIPDRFSGSGSGTDFTLTISRLEPEDFAVYYCQQYGSLPWTFGQGTKVEIKRTVAAPSVFIFPPSDEQLKSGTASVVCLLNNFYPREAKVQWKVDNALQSGNSQESVTEQDSKDSTYSLSSTLTLSKADYEKHKVYACEVTHQGLSSPVTKSFNRGEC
notes: IgG anti-PD-L1, one scFv anti-BTN3A; not shown: IgG1 CH1-hinge-CH2-CH3
B2: bsAb069 (bispecific antibody)
heavy 1: B1 heavy (part 1 of 2)
heavy 2: DIQMTQSPSSLSASVGDRVTITCHASQNINVWLSWYQQKPGKAPKLLIYKASNLHTGVPSRFTGSGSGTDFTFTISSLQPEDIATYYCQQGQTYPYTFGQGTKLEIKGGGGSGGGGSGGGGSGGGGSQVQLVQSGAEVKKPGASVKLSCKASGYIFTRYYMYWVKQRPGQGLEWIGEINPNNGGTKFNEKFKNRATLTVDKSISTAYMELSRLRSDDTAVYYCSREDDYDGTPFAMDYWGQGTLVTVSSGGGGSGGGGSGGGGSGGGGS
light: EIVLTQSPGTLSLSPGERATLSCRASQRVSSSYLAWYQQKPGQAPRLLIYDASSRATGIPDRFSGSGSGTDFTLTISRLEPEDFAVYYCQQYGSLPWTFGQGTKVEIKRTVAAPSVFIFPPSDEQLKSGTASVVCLLNNFYPREAKVQWKVDNALQSGNSQESVTEQDSKDSTYSLSSTLTLSKADYEKHKVYACEVTHQGLSSPVTKSFNRGECGGGGSGGGGSGGGGSGGGGSQVQLVQSGAEVKKPGASVKLSCKASGYIFTRYYMYWVKQRPGQGLEWIGEINPNNGGTKFNEKFKNRATLTVDKSISTAYMELSRLRSDDTAVYYCSREDDYDGTPFAMDYWGQGTLVTVSSGGGGSGGGGSGGGGSGGGGSDIQMTQSPSSLSASVGDRVTITCHASQNINVWLSWYQQKPGKAPKLLIYKASNLHTGVPSRFTGSGSGTDFTFTISSLQPEDIATYYCQQGQTYPYTFGQGTKLEIK
notes: not shown: IgG1 CH1-hinge-CH2-CH3; CH2-CH3 (Fc)
B3: bsAb070 (bispecific antibody)
heavy 1: B1 heavy (part 1 of 2)
heavy 2: QVQLVQSGAEVKKPGASVKLSCKASGYIFTRYYMYWVKQRPGQGLEWIGEINPNNGGTKFNEKFKNRATLTVDKSISTAYMELSRLRSDDTAVYYCSREDDYDGTPFAMDYWGQGTLVTVSSGGGGSGGGGSGGGGSGGGGSDIQMTQSPSSLSASVGDRVTITCHASQNINVWLSWYQQKPGKAPKLLIYKASNLHTGVPSRFTGSGSGTDFTFTISSLQPEDIATYYCQQGQTYPYTFGQGTKLEIKGGGGSGGGGSGGGGSGGGGS
light: EIVLTQSPGTLSLSPGERATLSCRASQRVSSSYLAWYQQKPGQAPRLLIYDASSRATGIPDRFSGSGSGTDFTLTISRLEPEDFAVYYCQQYGSLPWTFGQGTKVEIKRTVAAPSVFIFPPSDEQLKSGTASVVCLLNNFYPREAKVQWKVDNALQSGNSQESVTEQDSKDSTYSLSSTLTLSKADYEKHKVYACEVTHQGLSSPVTKSFNRGECGGGGSGGGGSGGGGSGGGGSDIQMTQSPSSLSASVGDRVTITCHASQNINVWLSWYQQKPGKAPKLLIYKASNLHTGVPSRFTGSGSGTDFTFTISSLQPEDIATYYCQQGQTYPYTFGQGTKLEIKGGGGSGGGGSGGGGSGGGGSQVQLVQSGAEVKKPGASVKLSCKASGYIFTRYYMYWVKQRPGQGLEWIGEINPNNGGTKFNEKFKNRATLTVDKSISTAYMELSRLRSDDTAVYYCSREDDYDGTPFAMDYWGQGTLVTVSS
notes: as for B2
B4: bsAb035 (bispecific antibody)
heavy (part 1 of 2): QVQLVQSGAEVKKPGASVKLSCKASGYIFTRYYMYWVKQRPGQGLEWIGEINPNNGGTKFNEKFKNRATLTVDKSISTAYMELSRLRSDDTAVYYCSREDDYDGTPFAMDYWGQGTLVTVSS
heavy (part 2 of 2): GGGGSGGGGSGGGGSGGGGSEVQLVESGGGLVQPGGSLRLSCAASGFTFSRYWMSWVRQAPGKGLEWVANIKQDGSEKYYVDSVKGRFTISRDNAKNSLYLQMNSLRAEDTAVYYCAREGGWFGELAFDYWGQGTLVTVSSGGGGSGGGGSGGGGSGGGGSEIVLTQSPGTLSLSPGERATLSCRASQRVSSSYLAWYQQKPGQAPRLLIYDASSRATGIPDRFSGSGSGTDFTLTISRLEPEDFAVYYCQQYGSLPWTFGQGTKVEIK
heavy: B4 heavy (part 1 of 2)
light: not shown
notes: IgG anti-BTN3A, one scFv anti-PD-L1; not shown: IgG1 CH1-hinge-CH2-CH3
B5: bsAb040 (bispecific antibody)
heavy (part 1 of 2): B4 heavy (part 1 of 2)
heavy (part 2 of 2): GGGGSGGGGSGGGGSGGGGSEIVLTQSPGTLSLSPGERATLSCRASQRVSSSYLAWYQQKPGQAPRLLIYDASSRATGIPDRFSGSGSGTDFTLTISRLEPEDFAVYYCQQYGSLPWTFGQGTKVEIKGGGGSGGGGSGGGGSGGGGSEVQLVESGGGLVQPGGSLRLSCAASGFTFSRYWMSWVRQAPGKGLEWVANIKQDGSEKYYVDSVKGRFTISRDNAKNSLYLQMNSLRAEDTAVYYCAREGGWFGELAFDYWGQGTLVTVSS
heavy: B4 heavy (part 1 of 2)
light: not shown
notes: as for B4
B6: bsAb055 (bispecific antibody)
heavy 1: B4 heavy (part 2 of 2)
heavy 2: B4 heavy (part 1 of 2)
light: not shown
notes: one Fab arm anti-BTN3A, one scFv anti-PD-L1; not shown: CH2-CH3 (Fc); IgG1 CH1-hinge-CH2-CH3
B7: bsAb011 (bispecific antibody)
heavy: QVQLVQSGAEVKKPGASVKLSCKASGYIFTRYYMYWVKQRPGQGLEWIGEINPNNGGTKFNEKFKNRATLTVDKSISTAYMELSRLRSDDTAVYYCSREDDYDGTPFAMDYWGQGTLVTVSSASTKGPSVFPLAPSSKSTSGGTAALGCLVKDYFPEPVTVSWNSGALTSGVHTFPAVLQSSGLYSLSSVVTVPSSSLGTQTYICNVNHKPSNTKVDKRVEPKSCDKTHTCPPCPAPEFEGGPSVFLFPPKPKDTLMISRTPEVTCVVVDVSHEDPEVKFNWYVDGVEVHNAKTKPREEQYNSTYRVVSVLTVLHQDWLNGKEYKCKVSNKALPASIEKTISKAKGQPREPQVYTLPPSREEMTKNQVSLTCLVKGFYPSDIAVEWESNGQPENNYKTTPPVLDSDGSFFLYSKLTVDKSRWQQGNVFSCSVMHEALHNHYTQKSLSLSPG
light: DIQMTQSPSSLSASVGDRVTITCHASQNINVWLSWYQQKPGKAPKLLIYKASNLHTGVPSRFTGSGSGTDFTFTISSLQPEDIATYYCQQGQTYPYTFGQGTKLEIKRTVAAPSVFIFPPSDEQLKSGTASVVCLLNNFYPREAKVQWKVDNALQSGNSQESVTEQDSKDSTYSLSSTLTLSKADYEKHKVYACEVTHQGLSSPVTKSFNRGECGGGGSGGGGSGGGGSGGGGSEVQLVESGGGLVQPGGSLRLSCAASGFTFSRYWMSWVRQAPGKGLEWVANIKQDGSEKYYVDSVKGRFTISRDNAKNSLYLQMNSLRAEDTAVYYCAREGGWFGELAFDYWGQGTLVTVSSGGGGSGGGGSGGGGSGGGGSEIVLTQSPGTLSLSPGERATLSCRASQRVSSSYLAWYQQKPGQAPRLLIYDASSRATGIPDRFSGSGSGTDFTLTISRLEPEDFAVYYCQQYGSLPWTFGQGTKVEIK
notes: IgG anti-BTN3A, scFv anti-PD-L1

Experiments:
recombinant human BTN3A1 = molecular target: T1, recombinant human BTN3A1 (human, UniProt O00481 30-254); test: SPR
T1 construct: Soluble form of the antigen used in SPR; also called rhBTN3A1; recombinant BTN3A1 protein
T1 sequence (O00481 30-254 limits assumed): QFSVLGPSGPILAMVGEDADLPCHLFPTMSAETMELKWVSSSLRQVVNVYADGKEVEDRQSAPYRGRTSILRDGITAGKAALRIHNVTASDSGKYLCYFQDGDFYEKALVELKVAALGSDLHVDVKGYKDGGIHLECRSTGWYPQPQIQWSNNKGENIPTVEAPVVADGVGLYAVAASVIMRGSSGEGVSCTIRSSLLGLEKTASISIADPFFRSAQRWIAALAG

recombinant human PD-L1 = molecular target: T2, recombinant human PD-L1 (human, UniProt Q9NZQ7 19-239, limits assumed); test: SPR
T2 construct: Soluble antigen in SPR; also called rhPD-L1
T2 sequence (Q9NZQ7 19-239 limits assumed): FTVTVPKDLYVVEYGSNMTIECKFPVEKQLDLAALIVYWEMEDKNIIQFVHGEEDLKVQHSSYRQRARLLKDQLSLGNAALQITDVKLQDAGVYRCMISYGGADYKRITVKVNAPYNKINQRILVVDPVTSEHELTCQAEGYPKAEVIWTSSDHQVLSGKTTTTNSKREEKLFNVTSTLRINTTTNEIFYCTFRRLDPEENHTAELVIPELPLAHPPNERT

[1] = molecular target: T3, BTN3A1 at the surface of HEK-BTN3A1 cells (human, UniProt O00481 30-513); test: flow cytometry, HEK-BTN3A1 cells
T3 construct: HEK 293T BTN2A/BTN3A KO cells transduced with a BTN3A1 expressing vector
T3 sequence (O00481 30-513 limits assumed): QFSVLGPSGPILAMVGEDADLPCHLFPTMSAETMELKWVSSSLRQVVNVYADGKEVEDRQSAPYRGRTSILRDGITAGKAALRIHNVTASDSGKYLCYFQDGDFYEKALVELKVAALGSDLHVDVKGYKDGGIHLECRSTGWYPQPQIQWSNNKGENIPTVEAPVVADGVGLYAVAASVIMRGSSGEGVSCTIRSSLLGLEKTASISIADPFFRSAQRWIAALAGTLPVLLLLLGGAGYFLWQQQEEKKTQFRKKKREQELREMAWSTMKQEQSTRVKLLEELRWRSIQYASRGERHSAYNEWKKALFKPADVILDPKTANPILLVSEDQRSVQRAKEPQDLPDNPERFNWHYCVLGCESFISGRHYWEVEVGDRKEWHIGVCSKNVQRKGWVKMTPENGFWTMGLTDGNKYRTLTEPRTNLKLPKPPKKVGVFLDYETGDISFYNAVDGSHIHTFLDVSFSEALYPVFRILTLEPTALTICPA

[2] = molecular target: T4, PD-L1 at the surface of transduced cells (UniProt Q9NZQ7 19-290, limits assumed); test: flow cytometry, CHO-PD-L1 cells
T4 construct: whole, on cells; CHO-PD-L1 cells in flow cytometry, Raji-PD-L1 cells in the reporter assay; also called CHO-PD-L1; Raji-PD-L1
T4 sequence (Q9NZQ7 19-290 limits assumed): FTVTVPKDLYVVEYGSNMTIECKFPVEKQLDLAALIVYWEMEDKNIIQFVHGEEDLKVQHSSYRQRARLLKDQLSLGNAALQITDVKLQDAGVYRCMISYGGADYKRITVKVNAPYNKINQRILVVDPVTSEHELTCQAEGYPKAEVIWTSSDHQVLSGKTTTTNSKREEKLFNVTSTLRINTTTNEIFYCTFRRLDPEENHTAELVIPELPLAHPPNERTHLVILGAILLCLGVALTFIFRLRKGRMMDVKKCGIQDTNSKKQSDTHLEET

[3] = molecular target: T4, PD-L1 at the surface of transduced cells; test: cell-based or functional assay

Binder | Kd (recombinant human BTN3A1) | Kd (recombinant human PD-L1) | MFI at 10 nM [1] | MFI at 100 nM [1] | MFI at 10 nM [2] | MFI at 100 nM [2] | Jurkat-PD-1 activation at 10 nM [3] | Jurkat-PD-1 activation at 100 nM [3]
B1 | 0.126 nM | 0.033 nM | 424000 MFI | 1.06e+06 MFI | 664000 MFI | 690000 MFI |  | 
B2 | 0.1 nM | 0.076 nM | 635000 MFI | 1.18e+06 MFI | 1.02e+06 MFI | 1.16e+06 MFI |  | 
B3 | 0.074 nM | 0.079 nM | 790000 MFI | 1e+06 MFI | 1.05e+06 MFI | 1.2e+06 MFI |  | 
B4 | 0.068 nM | 0.097 nM | 525000 MFI | 1.03e+06 MFI | 973000 MFI | 1.28e+06 MFI | 5 fold-change to medium | 7.9 fold-change to medium
B5 | 0.065 nM | 0.066 nM | 634000 MFI | 1.23e+06 MFI | 1.04e+06 MFI | 1.25e+06 MFI | 6 fold-change to medium | 7.5 fold-change to medium
B6 | 0.076 nM | 0.108 nM | 344000 MFI | 862000 MFI | 820000 MFI | 984000 MFI | 5.8 fold-change to medium | 7.4 fold-change to medium
B7 | 0.504 nM | 0.043 nM | 512000 MFI | 1.14e+06 MFI | 682000 MFI | 722000 MFI | 6.4 fold-change to medium | 2.3 fold-change to medium
